# Results published in paper PMC11178655, “Dosimetry and pharmacokinetics of [^177Lu]Lu-satoreotide tetraxetan in patients with progressive neuroendocrine tumours” (European Journal of Nuclear Medicine and Molecular Imaging, 2024).
# Several values for one entry are separate records, joined by “and”; a condition that tells them apart may be missing. Equal entries are not always repeated. Where a SMILES comes first, the peptide text is derived from it. Bridges are numbered along the chain shown (N, C = ends). [ ]: non-standard residue; d: D form. The star is where a group is joined. DOTA = O=C(O)CN1CCN(CC(=O)O)CCN(CC(=O)*)CCN(CC(=O)O)CC1; dPhe(4-NHCONH2) = NC(=O)Nc1ccc(C[C@@H](N)C(=O)O)cc1; Dihydroorotyl(S) = O=C1C[C@@H](C(=O)*)NC(=O)N1; Phe(4-Cl) = N[C@@H](Cc1ccc(Cl)cc1)C(=O)O; Phe(4-NH2) = Nc1ccc(C[C@H](N)C(=O)O)cc1
# System: patients with progressive, SSTR-positive NETs
# Assay: Patient-specific image-based dosimetry (NUKDOS) of tumours and organs, phase I/II trial
# Format: in vivo, human
# Procedure: In both parts A and B of the study, patients underwent planar whole-body imaging at 4 h and 1, 2, 3, and 6 days after each [^177Lu]Lu-satoreotide tetraxetan treatment cycle. Patients in part A also underwent single-photon emission computed tomography/computed tomography (SPECT/CT) at 24 h after each [^177Lu]Lu-satoreotide tetraxetan cycle. Those in part B underwent SPECT/CT, immediately before or after planar scintigraphy, at 4 h, and 1, 2, 3, and 6 days after each [^177Lu]Lu-satoreotide tetraxetan administration. Full details of the image acquisition methodology are provided in the Supplementary Information.
# Delineation of tumour volumes was performed on anatomical SPECT/CT images after each [^177Lu]Lu-satoreotide tetraxetan administration. Tumours with a longest diameter < 2 cm were not analysed due to the difficulty in correcting for partial volume effects caused by the limited spatial resolution of the SPECT/CT systems. For study inclusion in part A, one tumour lesion ≥ 2 cm must have been present for eligibility; in part B, two or more tumour lesions ≥ 2 cm must have been present, each with an uptake on SSTR imaging higher than that of normal liver parenchyma (target lesion on [^68Ga]Ga-DOTA-TATE or -DOTA-TOC positron emission tomography: maximum standardised uptake value [SUVmax] ≥ 2x the mean SUV [SUVmean] of liver background; or ^111In-scintigraphy/SPECT: Krenning score 3 or 4 [uptake > normal liver, or uptake > spleen or kidneys, respectively [26]]).
# Reconstruction parameters were set up to produce isotropic voxels of < 5 mm; voxels were continuous throughout the field of view. Anatomic coverage of the acquisition was determined according to the patients’ tumour locations on the planar whole-body scan acquisition with liver, both kidneys and spleen in the same bed position. For organs showing [^177Lu]Lu-satoreotide tetraxetan uptake, regions of interest (ROIs)/volumes of interest (VOIs) were drawn manually over the whole organs of interest (whole body, left and right kidneys, liver, spleen, and bone marrow), using the NUKDOS software for planar whole-body scans and the SPECT/CT acquired in part A [27]. VOIs for the same organs were drawn for all SPECT/CT images acquired in part B. All ROIs/VOIs were then used for activity quantification. Time-integrated activity coefficients (TIACs) for a given source volume were computed by integrating the time-activity curves. Full details of the tumour delineation and activity quantification methodology are provided in the Supplementary Information.
# Patient-specific dosimetry calculations were performed after each treatment cycle in both parts A and B, using the absorbed dose calculation features of the NUKDOS software for image-based dosimetry calculations. The NUKDOS software was chosen as it allowed for an integral approach to organ dosimetry (including image quantification, time-activity curve-fitting and dosimetry calculation). For the bone marrow, both image-based and blood-based calculations were performed in part A [28, 29]. In part B, only image-based bone marrow dosimetry was performed. Organ Level INternal Dose Assessment/EXponential Modelling (OLINDA/EXM) version 1.0 software, the most widely used version at the time of the study, was used to perform model-based dosimetry calculations, which were only performed after the first [^177Lu]Lu-satoreotide tetraxetan cycle for patients in part B. To generate organ-specific absorbed doses, TIACs were used as input data. Full details on OLINDA/EXM software settings and organ-specific TIAC calculation methods are provided in the Supplementary Information.
# All images were acquired with a 20% energy window around the main photopeak of ^177Lu (208 keV). For scatter correction, the triple-energy window method was applied based on the recommendation of the Committee on Medical Internal Radiation Dose. Whole-body images were acquired with a scanning time of 20 cm/min in a 256 × 1,024 matrix. […]
# [1] = Part B Cohort 3 (4.5 GBq, 300 µg; 700 µg at cycle 2), median (range), n = 8
# [2] = Part B Cohort 3 (4.5 GBq/cycle), image-based dosimetry, median (range), n = 6
# [3] = Part B Cohort 3 (4.5 GBq/cycle), median (range), n = 8
# [4] = Part B Cohort 3 (4.5 GBq/cycle), median (range), n = 9
# [5] = Part B Cohort 3, median (range), n = 8
# [6] = Part B Cohort 6 (4.5 GBq/cycle), median (range), n = 6
# [7] = Part B Cohort 6 (4.5 GBq/cycle), median (range), n = 7
# [8] = Part B Cohort 6 (4.5 GBq/cycle), median (range), n/n-les 4/9
smiles,measurement,setting,value
"C[C@@H](O)[C@@H]1NC(=O)[C@H](CCCCN)NC(=O)[C@@H](Cc2ccc(NC(N)=O)cc2)NC(=O)[C@H](Cc2ccc(NC(=O)[C@@H]3CC(=O)NC(=O)N3)cc2)NC(=O)[C@H](NC(=O)[C@H](Cc2ccc(Cl)cc2)NC(=O)CN2CCN(CC(=O)O)CCN(CC(=O)O)CCN(CC(=O)O)CC2)CSSC[C@@H](C(=O)N[C@H](Cc2ccc(O)cc2)C(N)=O)NC1=O [[^177Lu]Lu-satoreotide tetraxetan, metal not drawn] ({DOTA}-[Phe(4-Cl)][dC][Phe(4-NH2)](Dihydroorotyl(S))[dPhe(4-NHCONH2)]KTC[dY]-NH2; disulfide 2-7 (inferred); C-terminus assumed)","Cycle 3 ADC, Kidneys",[1],0.8 (0.4–1.2) Gy/GBq
same,"Cycle 3 ADC, Tumours",[1],5.5 (2.6–16.8) Gy/GBq
same,"Ratio of ADCs Cycle 2/Cycle 1 (700 vs. 300 µg), Bone marrow",[2],95.0 (36.4–143) %
same,"Ratio of ADCs Cycle 2/Cycle 3 (700 vs. 300 µg), Bone marrow",[2],95.0 (60.0–125) %
same,"Ratio of ADCs Cycle 2/Cycle 3 (700 vs. 300 µg), Spleen","Part B Cohort 3 (4.5 GBq/cycle), median (range), n = 5",79.3 (61.2–90.8) %
same,"Ratio of ADCs Cycle 2/Cycle 1 (700 vs. 300 µg), Spleen","Part B Cohort 3 (4.5 GBq/cycle), median (range), n = 6",61.9 (45.9–108) %
same,"Ratio of ADCs Cycle 2/Cycle 3 (700 vs. 300 µg), Body",[3],101 (78.7–132) %
same,"Ratio of ADCs Cycle 2/Cycle 3 (700 vs. 300 µg), Kidney",[3],82.0 (64.8–110) %
same,"Ratio of ADCs Cycle 2/Cycle 1 (700 vs. 300 µg), Body",[4],83.3 (52.8–100) %
same,"Ratio of ADCs Cycle 2/Cycle 1 (700 vs. 300 µg), Kidney",[4],80.8 (61.0–113) %
same,"Ratio of ADCs Cycle 2/Cycle 3 (700 vs. 300 µg), Liver lesions","Part B Cohort 3 (4.5 GBq/cycle), median (range), n/n-les 6/9",68.9 (57.3–121) %
same,"Ratio of ADCs Cycle 2/Cycle 1 (700 vs. 300 µg), Liver lesions","Part B Cohort 3 (4.5 GBq/cycle), median (range), n/n-les 7/10",70.4 (52.4–95.7) %
same,"Ratio of ADCs Cycle 2/Cycle 3 (700 vs. 300 µg), All lesions","Part B Cohort 3 (4.5 GBq/cycle), median (range), n/n-les 8/15",77.6 (52.4–121) %
same,"Ratio of ADCs Cycle 2/Cycle 1 (700 vs. 300 µg), All lesions","Part B Cohort 3 (4.5 GBq/cycle), median (range), n/n-les 9/17",62.5 (27.6–95.7) %
same,"Ratio of Cycle 3/ Cycle 1 ADCs, Bone marrow","Part B Cohort 3, image-based dosimetry, median (range), n = 6",106 (36.4–138) %
same,"Ratio of Cycle 3/ Cycle 1 ADCs, Spleen","Part B Cohort 3, median (range), n = 5",87.8 (76.0–152) %
same,"Ratio of Cycle 3/ Cycle 1 ADCs, Kidneys",[5],94.1 (78.9–146) %
same,"Ratio of Cycle 3/ Cycle 1 ADCs, Tumours",[5],80.5 (44.1–152) %
same,"Cycle 1 ADC, Bone marrow","Part B Cohort 6 (4.5 GBq, 300 µg), image-based dosimetry, median (range), n = 6",0.1 (0.0–0.2) Gy/GBq
same,"Cycle 1 ADC, Spleen","Part B Cohort 6 (4.5 GBq, 300 µg), median (range), n = 6",0.8 (0.4–1.0) Gy/GBq
same,"Cycle 1 ADC, Tumours","Part B Cohort 6 (4.5 GBq, 300 µg), median (range), n = 8",13.5 (2.2–81.0) Gy/GBq
same,"Cycle 1 ADC, Kidneys","Part B Cohort 6 (4.5 GBq, 300 µg), median (range), n = 9",0.8 (0.4–1.1) Gy/GBq
same,"Cycle 3 ADC, Bone marrow","Part B Cohort 6 (4.5 GBq, 300 µg; 1,300 µg at cycle 2), image-based dosimetry, median (range), n = 3",0.1 (0.0–0.1) Gy/GBq
same,"Cycle 3 ADC, Spleen","Part B Cohort 6 (4.5 GBq, 300 µg; 1,300 µg at cycle 2), median (range), n = 4",0.8 (0.7–1.5) Gy/GBq
same,"Cycle 3 ADC, Tumours","Part B Cohort 6 (4.5 GBq, 300 µg; 1,300 µg at cycle 2), median (range), n = 5",7.7 (3.2–70.3) Gy/GBq
same,"Cycle 3 ADC, Kidneys","Part B Cohort 6 (4.5 GBq, 300 µg; 1,300 µg at cycle 2), median (range), n = 6",0.8 (0.7–1.2) Gy/GBq
same,"Ratio of ADCs Cycle 2/Cycle 3 (1300 vs. 300 µg), Bone marrow","Part B Cohort 6 (4.5 GBq/cycle), image-based dosimetry, median (range), n = 3",114 (50.0–120) %
same,"Ratio of ADCs Cycle 2/Cycle 1 (1300 vs. 300 µg), Bone marrow","Part B Cohort 6 (4.5 GBq/cycle), image-based dosimetry, median (range), n = 4",200 (80.0–240) %
same,"Ratio of ADCs Cycle 2/Cycle 3 (1300 vs. 300 µg), Spleen","Part B Cohort 6 (4.5 GBq/cycle), median (range), n = 4",49.7 (49.3–52.6) %
same,"Ratio of ADCs Cycle 2/Cycle 1 (1300 vs. 300 µg), Spleen","Part B Cohort 6 (4.5 GBq/cycle), median (range), n = 5",48.0 (44.3–94.4) %
same,"Ratio of ADCs Cycle 2/Cycle 3 (1300 vs. 300 µg), Body",[6],87.6 (72.7–102) %
same,"Ratio of ADCs Cycle 2/Cycle 3 (1300 vs. 300 µg), Kidney",[6],72.4 (52.8–96.3) %
same,"Ratio of ADCs Cycle 2/Cycle 1 (1300 vs. 300 µg), Body",[7],82.3 (48.3–97.6) %
same,"Ratio of ADCs Cycle 2/Cycle 1 (1300 vs. 300 µg), Kidney",[7],92.5 (65.9–121) %
same,"Ratio of ADCs Cycle 2/Cycle 1 (1300 vs. 300 µg), Liver lesions",[8],48.4 (24.7–76.5) %
same,"Ratio of ADCs Cycle 2/Cycle 3 (1300 vs. 300 µg), Liver lesions",[8],67.9 (40.6–104) %
same,"Ratio of ADCs Cycle 2/Cycle 3 (1300 vs. 300 µg), All lesions","Part B Cohort 6 (4.5 GBq/cycle), median (range), n/n-les 5/11",67.9 (40.6–104) %
same,"Ratio of ADCs Cycle 2/Cycle 1 (1300 vs. 300 µg), All lesions","Part B Cohort 6 (4.5 GBq/cycle), median (range), n/n-les 6/13",44.4 (24.7–76.5) %
same,"Ratio of Cycle 3/ Cycle 1 ADCs, Bone marrow","Part B Cohort 6, image-based dosimetry, median (range), n = 3",200 (175–400) %
same,"Ratio of Cycle 3/ Cycle 1 ADCs, Spleen","Part B Cohort 6, median (range), n = 3",185 (84.2–192) %
same,"Ratio of Cycle 3/ Cycle 1 ADCs, Tumours","Part B Cohort 6, median (range), n = 4",79.0 (28.6–114) %
same,"Ratio of Cycle 3/ Cycle 1 ADCs, Kidneys","Part B Cohort 6, median (range), n = 5",143 (88.8–198) %
same,"Cumulative bone marrow absorbed dose, single patient","cohort 1 patient, one cycle at 5.9 GBq, developed grade 3 thrombocytopenia",3.6 Gy
same,"Overall specific absorbed dose coefficient in all lesions, initial diagnosis Pheochromocytoma + paraganglioma","first treatment cycle, median, N = 4",2.1 Gy/GBq
same,"Overall specific absorbed dose coefficient in all lesions, initial diagnosis Lung NET","first treatment cycle, median, N = 6",5.1 Gy/GBq
same,"Overall specific absorbed dose coefficient in all lesions, initial diagnosis GEP-NET","first treatment cycle, median, N = 23",5.8 Gy/GBq
same,"Patients with ADC ratio > 150% between cycle 3 and cycle 1, bone marrow","human, in vivo",23.8 % of patients
same,"Patients with ADC ratio > 150% between cycle 3 and cycle 1, kidneys","human, in vivo",8.3 % of patients
same,"Patients with ADC ratio > 150% between cycle 3 and cycle 1, liver","human, in vivo",no patients
same,"Patients with ADC ratio > 150% between cycle 3 and cycle 1, spleen","human, in vivo",22.2 % of patients
same,"Mean cumulative absorbed dose in the left and right kidneys, single patient","part A patient, three cycles each at 4.5 GBq, eGFR below normal at baseline, no further deterioration of renal function",24.1 Gy
same,"Cumulative bone marrow absorbed dose, single patient","part A patient, three treatment cycles at 4.5, 4.4 and 4.3 GBq, no acute haematological toxicity",2.2 Gy
same,"Cumulative absorbed dose, bone marrow, image-based method","part A, cycles 1–3, 11 evaluated patients, median",1.1 Gy
same,"Cycle 1 ADC, Tumours","part B (all cohorts), median [range]",7.9 [1.9–83.3] Gy/GBq
same,"Cumulative bone marrow absorbed dose, single patient","part B cohort 1 patient, two treatment cycles at 4.7 GBq, no acute haematological toxicity",1.9 Gy
same,"Cumulative absorbed dose, kidneys (both left and right)","parts A and B, after cycles 1–3, median, pre-specified limit 23.0 Gy",10.8 Gy
same,"Cumulative absorbed dose, bone marrow, image-based","parts A and B, patients who completed three cycles (n = 21), median, pre-specified limit 1.5 Gy",1.1 Gy
same,Cycle 1 ADC of tumours with ADC ratio cycle 3/cycle 1 > 150%,range,0.6–4.1 Gy/GBq
same,Observations of ADC ratio between cycle 3 and cycle 1 in tumours > 150%,share of observations,6.5%
same,"Cumulative bone marrow absorbed dose, single patients","two additional patients after treatment cycle 4, individual values",1.5 Gy and 1.8 Gy
